Data on six substances can be found in publication PMC6689051.

As a reminder, the Kd is the concentration at which binding is half-saturated.

Holding throughout (settings): 10 mM Tris-HCl pH 7.5, 50 mM KCl, 10 mM MgCl2 (10.1 mM MgCl2 + 0.1 mM EDTA), 23 C; nitrocellulose filter binding, 2 nM-2 uM Fab, 30 min
For series [1], the system named is Fab HAVx (synthetic (phage display, humanized Fab4D5 framework, YSGRKX library; expressed in E. coli)), PDB:6MWN_2+PDB:6MWN_3. Nature of the series: filter binding.
Another series has as its system P0. Nature of the series: method not stated in excerpt.
The test system of series [2] is best Fab clone from YSGR library (unnamed) (synthetic (phage display, humanized Fab4D5 framework; expressed in E. coli)). Nature of the series: filter binding.

Turning to HAV593-706, the Kd in series [1] turned out to be 0.049 µM.
Same read-out and setting: the value for “GGCAAACAUCAUUUGGCCUUAAAUGGGAUUCUGUGAGACGGGAUCCCUCCAUUGACAGCUGGACUGUUCUUUGGGGCCUUAUGUGGUGUUUG [HAV dV G631C]” was 0.058 µM; that for “GGCAAACAUCAUUUGGCCUUAAAUGGGAUUCUGUGAGAGGGGAUCCCUCCAUUGACAGCUGGACUGUUCUUUGGGGCCUUAGUGGUGUUUG [HAV dV delU672]” was more than 1 µM; that for “GGCAAACAUCAUUUGGCCUUAAAUGGGAUUCUGUGAGAGGGGAUCCCUCCAUUGACAGCUGGACUGUUCUUUGGGGCCUAUGUGGUGUUUG [HAV dV delU674]” was 0.176 µM.
On to “GGCAAACAUCAUUUGGCCUUAAAUGGGAUUCUGUGAGAGGGGAUCCCUCCAUUGACAGCUGGACUGUUCUUUGGGGCCUUAUGUGGUGUUUG [HAV dV (HAV593-684)]”, for which the Kd in the series with P0 amounted to 0.22 µM; in series [2], 0.29 µM; in series [1], 0.044 µM.
For HAV593-720, the Kd in series [1] was 0.047 µM.
